Measurements: patent US20220040297A1 (Chugai, published 2022)
Substitutions are numbered along the chain they refer to. In names and notes the source's numbering stands.

B1: GLS3000 Y96F (antibody, name in Kabat numbering, V domains shown)
VH: QVQLVESGGGVVQPGRSLRLSCAASGFTFSNAWMHWVRQAPGKGLEWVAQIKAKSNNYATYYAESVKGRFTISRDDSKNSLYLQMNSLKTEDTAVYYCRYVHYGAYYGVDAWGQGTTVTVSS
VL: DIVMTQSPLSLPVTPGEPASISCRSSQSLVHSNRNTYLHWYQQKPGQAPRLLIYKVSNRFSGVPDRFSGSGSGTDFTLKISRVEAEDVGVYYCGQGTQVPFTFGQGTKLEIK
notes: one-arm format as m2
B2: GLS3000 Y96H (antibody, name in Kabat numbering, V domains shown)
VH: B1 VH
VL: B1 VL with F101H
notes: one-arm format as m2
B3: GLS3000 Y32A (antibody, name in Kabat numbering, V domains shown)
VH: B1 VH
VL: B1 VL with Y37A, F101Y
notes: one-arm format as m2
B4: GLS3000 V94W (antibody, name in Kabat numbering, V domains shown)
VH: B1 VH
VL: B1 VL with V99W, F101Y
notes: one-arm format as m2
B5: GLS3000 Y32P (antibody, name in Kabat numbering, V domains shown)
VH: B1 VH
VL: B1 VL with Y37P, F101Y
notes: one-arm format as m2
B6: GLS3000 Y32F (antibody, name in Kabat numbering, V domains shown)
VH: B1 VH
VL: B1 VL with Y37F, F101Y
notes: one-arm format as m2
B7: GLS3000 Y96E (antibody, name in Kabat numbering, V domains shown)
VH: B1 VH
VL: B1 VL with F101E
notes: one-arm format as m2
B8: GLS3000 Y96L (antibody, name in Kabat numbering, V domains shown)
VH: B1 VH
VL: B1 VL with F101L
notes: one-arm format as m2
B9: GLS3000 Y96D (antibody, name in Kabat numbering, V domains shown)
VH: B1 VH
VL: B1 VL with F101D
notes: one-arm format as m2
B10: GLS3000 Y32D (antibody, name in Kabat numbering, V domains shown)
VH: B1 VH
VL: B1 VL with Y37D, F101Y
notes: one-arm format as m2
B11: GLS3000 V94Y (antibody, name in Kabat numbering, V domains shown)
VH: B1 VH
VL: B1 VL with V99Y, F101Y
notes: one-arm format as m2
B12: CE115HA000 H35A (antibody, name in Kabat numbering, V domains shown)
VH: B1 VH with H35A
VL: B1 VL with F101Y
B13: CE115HA000 A99H (antibody, name in Kabat numbering, V domains shown)
VH: B1 VH with A105H
VL: B1 VL with F101Y
B14: CE115HA000 D72E (antibody, name in Kabat numbering, V domains shown)
VH: B1 VH with D75E
VL: B1 VL with F101Y
B15: CE115HA000 A52aG (antibody, name in Kabat numbering, V domains shown)
VH: B1 VH with A53G
VL: B1 VL with F101Y
B16: CE115HA000 A56L (antibody, name in Kabat numbering, V domains shown)
VH: B1 VH with A59L
VL: B1 VL with F101Y
B17: CE115HA000 A52aS (antibody, name in Kabat numbering, V domains shown)
VH: B1 VH with A53S
VL: B1 VL with F101Y
B18: CE115HA000 A99F (antibody, name in Kabat numbering, V domains shown)
VH: B1 VH with A105F
VL: B1 VL with F101Y
B19: CE115HA000 D73E (antibody, name in Kabat numbering, V domains shown)
VH: B1 VH with D76E
VL: B1 VL with F101Y
B20: CE115HA000 A52aP (antibody, name in Kabat numbering, V domains shown)
VH: B1 VH with A53P
VL: B1 VL with F101Y
B21: CE115HA000 D73G (antibody, name in Kabat numbering, V domains shown)
VH: B1 VH with D76G
VL: B1 VL with F101Y
B22: CE115HA000 A99T (antibody, name in Kabat numbering, V domains shown)
VH: B1 VH with A105T
VL: B1 VL with F101Y
B23: CE115HA000 A52aE (antibody, name in Kabat numbering, V domains shown)
VH: B1 VH with A53E
VL: B1 VL with F101Y
B24: CE115HA000 A102Y (antibody, name in Kabat numbering, V domains shown)
VH: B1 VH with A111Y
VL: B1 VL with F101Y
B25: CE115HA000 A56G (antibody, name in Kabat numbering, V domains shown)
VH: B1 VH with A59G
VL: B1 VL with F101Y
B26: CE115HA000 A32Y (antibody, name in Kabat numbering, V domains shown)
VH: B1 VH with A32Y
VL: B1 VL with F101Y
B27: CE115HA000 D73T (antibody, name in Kabat numbering, V domains shown)
VH: B1 VH with D76T
VL: B1 VL with F101Y
B28: CE115HA000 A99S (antibody, name in Kabat numbering, V domains shown)
VH: B1 VH with A105S
VL: B1 VL with F101Y
B29: CE115HA000 A99D (antibody, name in Kabat numbering, V domains shown)
VH: B1 VH with A105D
VL: B1 VL with F101Y
B30: CE115HA000 A56K (antibody, name in Kabat numbering, V domains shown)
VH: B1 VH with A59K
VL: B1 VL with F101Y
B31: CE115HA000 A56Q (antibody, name in Kabat numbering, V domains shown)
VH: B1 VH with A59Q
VL: B1 VL with F101Y
B32: CE115HA000 A56D (antibody, name in Kabat numbering, V domains shown)
VH: B1 VH with A59D
VL: B1 VL with F101Y
B33: CE115HA000 A99I (antibody, name in Kabat numbering, V domains shown)
VH: B1 VH with A105I
VL: B1 VL with F101Y
B34: CE115HA000 A60E (antibody, name in Kabat numbering, V domains shown)
VH: B1 VH with A63E
VL: B1 VL with F101Y
B35: CE115HA000 D73R (antibody, name in Kabat numbering, V domains shown)
VH: B1 VH with D76R
VL: B1 VL with F101Y
B36: CE115HA000 A56Y (antibody, name in Kabat numbering, V domains shown)
VH: B1 VH with A59Y
VL: B1 VL with F101Y
B37: CE115HA000 A102V (antibody, name in Kabat numbering, V domains shown)
VH: B1 VH with A111V
VL: B1 VL with F101Y
B38: CE115HA000 A52aV (antibody, name in Kabat numbering, V domains shown)
VH: B1 VH with A53V
VL: B1 VL with F101Y
B39: CE115HA000 A56N (antibody, name in Kabat numbering, V domains shown)
VH: B1 VH with A59N
VL: B1 VL with F101Y
B40: CE115HA000 D72V (antibody, name in Kabat numbering, V domains shown)
VH: B1 VH with D75V
VL: B1 VL with F101Y
B41: CE115HA000 A52aD (antibody, name in Kabat numbering, V domains shown)
VH: B1 VH with A53D
VL: B1 VL with F101Y
B42: CE115HA000 A60D (antibody, name in Kabat numbering, V domains shown)
VH: B1 VH with A63D
VL: B1 VL with F101Y

molecular target: CD3ε homodimer protein (human, UniProt P07766 23-126, limits assumed); experiment: SPR, immobilized CD3ε homodimer;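 note: biacore T200 surface plasmon resonance at 25 °C, antibody variants flowed as analytes over amine-coupled CD3ε homodimer on a CM4 chip, variant binding amount divided by that of GLS3000 antibody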
Sequence (P07766 23-126 limits assumed): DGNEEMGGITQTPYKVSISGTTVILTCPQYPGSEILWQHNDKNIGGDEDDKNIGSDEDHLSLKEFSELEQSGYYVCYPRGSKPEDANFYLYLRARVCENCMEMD

Binder	ratio of amounts bound (vs GLS3000)
B1	1.17
B2	0.23
B3	0.24
B4	0.58
B5	0.24
B6	0.29
B7	0.17
B8	0.32
B9	0.17
B10	0.23
B11	0.63

molecular target: T1, CD3ε homodimer protein (human, UniProt P07766 23-126, limits assumed, sulfo-tag or biotin label in some ECL assays); experiment: SPR, CD3ε homodimer on chip;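 note: biacore SPR with antibody variants flowed as analyte over amine-coupled CD3ε homodimer on a CM chip, bound amount of each single-residue H chain variant over that of parent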
T1 construct: also called human CD3ε homodimer protein; CD3 (CD3ε)
T1 sequence (P07766 23-126 limits assumed): as above

Binder	ratio of amounts bound vs CE115HA000
B12	0.17
B13	1.48
B14	1.05
B15	0.81
B16	0.8
B17	1.05
B18	1.43
B19	0.73
B20	0.15
B21	0.43
B22	0.84
B23	0.57
B24	0.91
B25	0.61
B26	0.33
B27	0.63

Binder	ratio of amounts bound vs CE115HA000
B28	0.82
B29	0.28
B30	1.35
B31	0.76
B32	0.51
B33	1.13
B34	0.94
B35	1.04
B36	0.66
B37	1.43
B38	0.52
B39	0.87
B40	1.43
B41	1.34
B42	0.99
